Laboratory results from patent publication US6191256A, “Recombinant factor VIII binding peptides” (Bayer Corporation, priority 1998, dated 2001).
Each block holds one substance with its values, some of them ahead of it.

What was measured:
rFVIII [1] = target: T1, rFVIII (Homo sapiens, UniProt P00451); assay: confirmatory binding assay in filtration plate format using 14C-rFVIII; details: for 0.5M CaCl2 % total / 2% acetic acid % total / 2% acetic acid dpm / 0.5M CaCl2 dpm: 5 mg beads; for 0.5M CaCl2 dpm: 5° C.; for beads % total / beads dpm: remaining on beads after washes
T1 sequence (P00451 20-2351): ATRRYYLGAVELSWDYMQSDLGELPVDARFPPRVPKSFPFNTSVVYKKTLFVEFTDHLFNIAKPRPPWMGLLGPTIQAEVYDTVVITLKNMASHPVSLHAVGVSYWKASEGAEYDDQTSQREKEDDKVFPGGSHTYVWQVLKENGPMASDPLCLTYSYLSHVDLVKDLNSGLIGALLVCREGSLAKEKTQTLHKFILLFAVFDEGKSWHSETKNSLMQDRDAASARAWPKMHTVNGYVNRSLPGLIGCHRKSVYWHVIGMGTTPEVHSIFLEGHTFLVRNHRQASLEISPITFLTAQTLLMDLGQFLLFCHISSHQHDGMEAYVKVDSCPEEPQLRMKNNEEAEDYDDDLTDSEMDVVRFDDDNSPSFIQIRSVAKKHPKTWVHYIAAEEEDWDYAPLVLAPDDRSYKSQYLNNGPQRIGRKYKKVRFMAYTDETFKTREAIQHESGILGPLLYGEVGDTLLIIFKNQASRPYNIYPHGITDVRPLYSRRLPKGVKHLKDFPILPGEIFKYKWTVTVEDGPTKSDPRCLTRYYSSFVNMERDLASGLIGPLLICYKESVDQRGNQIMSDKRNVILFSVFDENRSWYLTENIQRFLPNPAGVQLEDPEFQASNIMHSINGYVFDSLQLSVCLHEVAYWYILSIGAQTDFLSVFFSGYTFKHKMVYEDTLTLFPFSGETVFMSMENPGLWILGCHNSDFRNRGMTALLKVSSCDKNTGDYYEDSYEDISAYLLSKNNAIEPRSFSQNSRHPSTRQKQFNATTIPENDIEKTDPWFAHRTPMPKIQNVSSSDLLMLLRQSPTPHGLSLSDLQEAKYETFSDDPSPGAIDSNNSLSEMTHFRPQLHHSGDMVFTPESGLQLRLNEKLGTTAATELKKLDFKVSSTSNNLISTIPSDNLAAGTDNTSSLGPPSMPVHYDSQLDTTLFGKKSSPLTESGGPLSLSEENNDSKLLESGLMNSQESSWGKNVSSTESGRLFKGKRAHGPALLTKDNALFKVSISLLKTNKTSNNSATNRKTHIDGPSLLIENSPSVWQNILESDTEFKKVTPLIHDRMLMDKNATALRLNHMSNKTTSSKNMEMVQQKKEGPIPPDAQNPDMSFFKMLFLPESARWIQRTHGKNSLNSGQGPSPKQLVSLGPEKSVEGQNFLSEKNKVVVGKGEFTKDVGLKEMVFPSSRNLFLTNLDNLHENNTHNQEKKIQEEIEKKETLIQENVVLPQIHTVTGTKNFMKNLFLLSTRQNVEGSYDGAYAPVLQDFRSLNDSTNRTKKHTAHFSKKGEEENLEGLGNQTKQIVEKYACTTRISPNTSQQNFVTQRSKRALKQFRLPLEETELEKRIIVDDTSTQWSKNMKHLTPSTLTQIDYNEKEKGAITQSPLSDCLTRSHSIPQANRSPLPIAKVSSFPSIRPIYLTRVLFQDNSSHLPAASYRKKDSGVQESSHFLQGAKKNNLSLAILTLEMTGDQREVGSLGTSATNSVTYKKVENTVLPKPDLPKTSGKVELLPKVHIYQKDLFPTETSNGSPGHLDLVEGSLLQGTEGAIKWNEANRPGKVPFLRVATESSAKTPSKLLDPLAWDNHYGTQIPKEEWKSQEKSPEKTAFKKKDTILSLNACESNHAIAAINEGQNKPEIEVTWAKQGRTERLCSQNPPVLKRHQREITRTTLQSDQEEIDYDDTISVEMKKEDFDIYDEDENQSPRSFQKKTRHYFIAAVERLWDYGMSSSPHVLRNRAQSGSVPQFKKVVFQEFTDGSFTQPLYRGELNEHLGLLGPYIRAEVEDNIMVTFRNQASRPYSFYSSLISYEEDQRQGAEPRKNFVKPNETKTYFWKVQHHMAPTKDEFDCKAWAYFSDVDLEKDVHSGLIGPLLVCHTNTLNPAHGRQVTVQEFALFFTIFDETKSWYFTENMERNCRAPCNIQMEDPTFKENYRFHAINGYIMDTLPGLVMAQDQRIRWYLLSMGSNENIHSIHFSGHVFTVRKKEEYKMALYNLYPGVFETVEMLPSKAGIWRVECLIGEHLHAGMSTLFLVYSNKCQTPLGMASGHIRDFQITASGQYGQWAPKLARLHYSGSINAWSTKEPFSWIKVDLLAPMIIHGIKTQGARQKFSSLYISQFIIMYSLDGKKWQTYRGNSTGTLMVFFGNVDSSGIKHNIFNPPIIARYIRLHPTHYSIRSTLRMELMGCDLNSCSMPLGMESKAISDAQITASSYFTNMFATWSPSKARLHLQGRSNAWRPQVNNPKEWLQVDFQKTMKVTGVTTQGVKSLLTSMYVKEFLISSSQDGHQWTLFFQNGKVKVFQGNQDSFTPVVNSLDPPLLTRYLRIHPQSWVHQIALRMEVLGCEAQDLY
T1 sequence (P00451 1668-2351 limits assumed): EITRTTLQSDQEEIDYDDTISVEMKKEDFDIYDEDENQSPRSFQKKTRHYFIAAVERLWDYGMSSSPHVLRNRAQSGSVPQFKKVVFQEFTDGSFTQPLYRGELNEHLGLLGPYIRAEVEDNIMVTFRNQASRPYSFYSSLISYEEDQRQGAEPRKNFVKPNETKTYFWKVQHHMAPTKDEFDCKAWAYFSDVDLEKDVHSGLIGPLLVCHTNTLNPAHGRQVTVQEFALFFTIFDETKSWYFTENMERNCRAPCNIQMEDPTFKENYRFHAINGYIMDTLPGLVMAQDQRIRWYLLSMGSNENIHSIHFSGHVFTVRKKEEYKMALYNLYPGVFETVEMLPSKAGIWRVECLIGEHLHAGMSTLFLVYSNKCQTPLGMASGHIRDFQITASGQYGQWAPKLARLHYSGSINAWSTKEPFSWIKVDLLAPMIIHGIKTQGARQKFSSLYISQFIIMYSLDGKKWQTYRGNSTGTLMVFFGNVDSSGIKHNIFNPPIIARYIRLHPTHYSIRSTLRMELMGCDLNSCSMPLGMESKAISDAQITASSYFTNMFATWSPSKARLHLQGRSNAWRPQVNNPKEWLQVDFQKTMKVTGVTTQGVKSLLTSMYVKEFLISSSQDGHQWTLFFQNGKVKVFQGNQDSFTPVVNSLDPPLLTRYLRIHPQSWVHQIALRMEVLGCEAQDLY
Protocol: Confirmatory binding assays were performed in a filtration plate format using individual peptide sequences synthesized directly onto the TOYOPEARL AF amino 650 M resin, at a final substitution density of 0.1 mmole/g resin. A slurry of each individual peptide sequence was prepared using deionized water. A 100 μL volume of beads (corresponding to 5 mg) was loaded into each well of the filtration plate (MULTISCREEN Assay System, Millipore, Bedford, Mass.), in triplicate for each peptide sequence. Beads were washed with 20% ethanol and incubated overnight with equilibration buffer (20 mM imidazole, 10 mM
CaCl2, 0.105 M NaCl, pH 6.9). A 100 μL aliquot of ^14 C-rFVIII diluted in neat PPF to a final concentration of 20-30 nM was loaded into each well and incubated for 1 hour at 5° C. Filtrate (unbound ^14 C-rFVIII) was collected into a microtiter plate and transferred to liquid scintillation vials for dpm counting. Beads were washed sequentially with: 100 μL of equilibration buffer for 15 minutes, 200 μL of 0.5 M CaCl2 (in equilibration buffer), 200 μL of 1.0 M CaCl2 (in equilibration buffer), and 200 uL of 2% by volume glacial acetic acid in water, for 1 hour each at 5° C. Scintillation counting on the unbound ^14 C-rFVIII (plus equilibration buffer wash), salt and acid washes, as well as on the beads was then performed and the overall mass balance calculated.
Beads presenting the appropriate peptide sequence on the surface were placed in the filtration plate wells and incubated sequentially with equilibration buffer, ^14 C-rFVIII in PPF, equilibration buffer, 0.5 M CaCl2 wash, 1.0 M CaCl2 wash and 2% acetic acid wash. After each incubation, filtrate was collected in microtiter plates, and dpm counted on each
In Table 3, the ^14 C-rFVIII was loaded at 20 nM (in PPF) and the radiolabeling yield was at 3.0×10^15 dpm/mole. In Table 4, the ^14 C-rFVIII was loaded at 30 nM (in PPF) and the radiolabeling yield was at 5.0×10^15 dpm/mole.

rFVIII [2] = target: T1, rFVIII; assay: column format binding assay, rFVIII mass per fraction by sandwich capture ELISA for the light chain; details: for Flow through ng: 10,000 ng rFVIII in 1:10 PPF injected, 5° C.; for ELISA results % total: Table 9, 0.5M CaCl2 fraction
Protocol: (§1) Immunoassay on rFVIII using a sandwich capture ELISA for the light chain and activity assay using a chromogenic substrate (COATEST Factor VIII kit from diaPharma, Franklin, Ohio) were performed on a BIOMEK® automated liquid handling system from Beckman Instruments (Brea, Calif.). The monoclonal antibody for rFVIII light chain (known as C7F7), the ELISA assay standard (lot A70K019), and the control for the activity assay (lot A70A001 @ 140 IU/mL) were from the Bayer Corporation (Berkeley, Calif.). The standard for the activity assay was at 11.2 IU/mL (Bayer, Clayton, N.C.), calibrated against the MEGA 1 standard, which is a working standard used by American manufacturers for measuring factor VIII activity (21).
(§2) Additional confirmatory binding assay and performance of the discovered binding peptides in terms of total rFVIII and activity recovery was performed in a column chromatographic format on a microbore HPLC. The resins were packed into 0.4×5 cm columns (Thomson, Springfield, Va.) and tested on the MICHROM HPLC system (Michrom BioResources, Auburn, Calif.). The elution program for the trials utilized the following method. The column was pre-equilibrated with equilibration buffer (as above). A 1 mL aliquot of 1:10 PPF followed by 1 mL of rFVIII (10,000 ng) in 1:10 PPF were injected and allowed sufficient time to flow through the column using equilibration buffer. The column was then washed with step elutions of 0.5 M and 1.0 M CaCl2 in equilibration buffer. The column was exposed to equilibration buffer. Remaining protein was eluted with 2% by volume glacial acetic acid in water. Columns were kept at 5° C. during the chromatographic runs. For each 1 mL injection (equilibration buffer, 1:10 PPF and 10,000 ng rFVIII in 1:10 PPF), the chromatographic cycle was run for 45 minutes (injection, flow through, 0.5 M CaCl2, 1.0 M CaCl2, equilibration buffer, 2% acetic acid, equilibration buffer).
(§3) A Gilson FC204 fraction collector at the HPLC outlet collected individual eluates for further analysis. Each collection tube had 100 μL hSA added to it to stabilize the rFVIII. Fractions collected from the 2% acetic acid eluates were neutralized with 2 M Tris, pH 10.5 to bring the pH to neutrality. The fractions were analyzed for total protein by the integration of the absorbance at 280 nm, for rFVIII by immunoassay (sandwich capture ELISA), and for rFVIII activity by a chromogenic substrate assay.
Tables 5 and 6 present the results from the additional confirmatory binding assays using the column format. The chromatography method was run by injecting the samples at a flow rate of 865 μL/min (413 cm/hr). In order to provide a 10 minute residence time of sample in the column the flow was decreased to 17 μL/min (10 cm/hr) upon injection.
Following the incubation, the flow was set at 865 μL/min (413 cm/hr) for the step clutions of 0.5 M CaCl2, 1.0 M CaCl2, and 2% acetic acid. Results are expressed in terms of the total mass of rFVIII in each fraction, as determined by the sandwich capture ELISA assay for the rFVIII light chain. […] A control using a non-binding peptide sequence (IGF) is also shown for comparison--in this case, 95% of the rFVIII loaded to the column was collected in the flow through fraction. Additional controls with no

rFVIII [3] = target: T1, rFVIII; assay: rFVIII activity recovery from peptide columns by chromogenic substrate assay (COATEST); assay type: biochemical; details: for 0.5M CaCl2 % total: activity recovery; for Flow through IU: rFVIII activity in fraction; for Activity results % total: Table 9, 0.5M CaCl2 fraction
Protocol: as §1, §2, §3
Tables 7 and 8 list the sequences for which activity recovery was determined by a chromogenic substrate assay (COASTEST kit, diaPharma, Franklin, Ohio). Chromatographc conditions are the same as described above for the results from Tables 5 and 6. It can be

[4] = Table 3, 14C-rFVIII 20 nM in PPF
[5] = Table 3, 14C-rFVIII 20 nM in PPF, 3.0 × 10^15 DPM/mole
[6] = Table 4, 14C-rFVIII 30 nM in PPF

Total dpm (rFVIII [1]; Table 3, 14C-rFVIII 20 nM): 3764 dpm
0.5M CaCl2 % total (rFVIII [1]; [4]): 85%
2% acetic acid % total (rFVIII [1]; [4]): 11%
2% acetic acid dpm (rFVIII [1]; [4]): 415 dpm
0.5M CaCl2 dpm (rFVIII [1]; [5]): 3184 dpm
beads % total (rFVIII [1]; Table 3, 14C-rFVIII 20 nM): 4%
beads dpm (rFVIII [1]; Table 3, 14C-rFVIII 20 nM): 165 dpm
0.5M CaCl2 ng (rFVIII [2]; Table 5): 5836 ng
0.5M CaCl2 % total (rFVIII [2]; Table 5): 94%
2% acetic acid % total (rFVIII [2]; Table 5): 1%
2% acetic acid ng (rFVIII [2]; Table 5): 77 ng
Flow through % total (rFVIII [2]; Table 5): 4%
Total ng (rFVIII [2]; Table 5): 6225 ng
Flow through ng (rFVIII [2]; Table 5): 228 ng
ELISA results % total (rFVIII [2]): 94%
0.5M CaCl2 IU (rFVIII [3]; Table 7): 40.6 IU
2% acetic acid % total (rFVIII [3]; Table 7): 1%
2% acetic acid IU (rFVIII [3]; Table 7): 0.4 IU
Flow through % total (rFVIII [3]; Table 7): 0%
Total IU (rFVIII [3]; Table 7): 42.5 IU
0.5M CaCl2 % total (rFVIII [3]; Table 7): 96%
Flow through IU (rFVIII [3]; Table 7): 0.0 IU
Activity results % total (rFVIII [3]): 96%
Substance: 7 (IRFYSE) [compound 7]

Total dpm (rFVIII [1]; Table 4, 14C-rFVIII 30 nM): 3484 dpm
0.5M CaCl2 % total (rFVIII [1]; [6]): 21%
2% acetic acid % total (rFVIII [1]; [6]): 63%
2% acetic acid dpm (rFVIII [1]; [6]): 2208 dpm
0.5M CaCl2 dpm (rFVIII [1]; Table 4, 14C-rFVIII 30 nM in PPF, 5.0 × 10^15 dpm/mole): 722 dpm
beads % total (rFVIII [1]; Table 4, 14C-rFVIII 30 nM): 16%
beads dpm (rFVIII [1]; Table 4, 14C-rFVIII 30 nM): 554 dpm
0.5M CaCl2 ng (rFVIII [2]; Table 6): 1239 ng
0.5M CaCl2 % total (rFVIII [2]; Table 6): 22%
2% acetic acid % total (rFVIII [2]; Table 6): 60%
2% acetic acid ng (rFVIII [2]; Table 6): 3284 ng
Flow through % total (rFVIII [2]; Table 6): 0%
Total ng (rFVIII [2]; Table 6): 5510 ng
Flow through ng (rFVIII [2]; Table 6): 0 ng
0.5M CaCl2 IU (rFVIII [3]; Table 8): 11.4 IU
2% acetic acid % total (rFVIII [3]; Table 8): 19%
2% acetic acid IU (rFVIII [3]; Table 8): 4.1 IU
Flow through % total (rFVIII [3]; Table 8): 0%
Total IU (rFVIII [3]; Table 8): 21.2 IU
0.5M CaCl2 % total (rFVIII [3]; Table 8): 53%
Flow through IU (rFVIII [3]; Table 8): 0.0 IU
Substance: 21 (HFQIFG) [compound 21]

Total dpm (rFVIII [1]; Table 3, 14C-rFVIII 20 nM): 2767 dpm
0.5M CaCl2 % total (rFVIII [1]; [4]): 86%
2% acetic acid % total (rFVIII [1]; [4]): 12%
2% acetic acid dpm (rFVIII [1]; [4]): 322 dpm
0.5M CaCl2 dpm (rFVIII [1]; [5]): 2366 dpm
beads % total (rFVIII [1]; Table 3, 14C-rFVIII 20 nM): 3%
beads dpm (rFVIII [1]; Table 3, 14C-rFVIII 20 nM): 79 dpm
0.5M CaCl2 ng (rFVIII [2]; Table 5): 5745 ng
0.5M CaCl2 % total (rFVIII [2]; Table 5): 92%
2% acetic acid % total (rFVIII [2]; Table 5): 0%
2% acetic acid ng (rFVIII [2]; Table 5): 31 ng
Flow through % total (rFVIII [2]; Table 5): 7%
Total ng (rFVIII [2]; Table 5): 6245 ng
Flow through ng (rFVIII [2]; Table 5): 447 ng
ELISA results % total (rFVIII [2]): 92%
0.5M CaCl2 IU (rFVIII [3]; Table 7): 51.6 IU
2% acetic acid % total (rFVIII [3]; Table 7): 1%
2% acetic acid IU (rFVIII [3]; Table 7): 0.5 IU
Flow through % total (rFVIII [3]; Table 7): 1%
Total IU (rFVIII [3]; Table 7): 54.3 IU
0.5M CaCl2 % total (rFVIII [3]; Table 7): 95%
Flow through IU (rFVIII [3]; Table 7): 0.4 IU
Activity results % total (rFVIII [3]): 95%
Substance: 2 (RNPPNN) [compound 2]
